According to the RNAGym collection of RNA variant scans (doi:10.1073/pnas.2313332121):
Fewer inactive variants are shown than the library holds.

B1: TPR 5TU (parent)
chain: GGAUCUUCUCGAUCUAACAAAAAAGACAAAUCUGCCACAAAGCUUGAGAGCAUCUUCGGAUGCAGAGGCGGCAGCCUUCGGUGGCGCGAUAGCGCCAACGUUCUCAACUAUGACACGCAAAACGCGUGCUCCGUUGAAUGGAGUUUAUCAUG

Variants of: B1
Assay: polymerase ribozyme fitness, log enrichment relative to wild type (log ratio); higher = more active; in vitro selection for triplet polymerase activity
Summary of the method: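 Each subunit of a heterodimeric triplet polymerase ribozyme was represented by a PCR-built, transcribed mutant library that underwent triplicate single-round in vitro selection with frozen incubation at −7 °C. Extended constructs were recovered by gel excision, streptavidin-bead capture and RT-PCR, and Illumina sequencing of input and output libraries kept genotypes with ≥10 input reads and ≥1 read per output. Fitness is the logarithm of genotype enrichment relative to wild-type enrichment, from inverse-variance-weighted replicate averages, with a logarithm base of 2.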

Variant | polymerase ribozyme fitness (log ratio)
GGAUCUUCUCGAUCUAACAAAAAAGACAAAUCUGUCACAAAGCUUGAGAGCAUCUACGGAUGCAGAGGCGGCAGCCUUCGGUGGCGCGAUAGCGACAACGUUCUUAACUAUGACACGCAAAACGCCUGCUCCGUUGAAUGGAGUUUAUCAUG [C35U U56A C95A C105U G126C] | -1.08
GGAUCUUCUCGAUCUAACAAAAAAGACAAAUCUGUCACAAAGCUUGAGAGCAUCUUCGGAUGCAGAGGCGGCAGUCUUCGGUAACGCGAUAGCGUUAACGUUCUCAACUAUGACACGCAAAACGCGUGCUCCGUUGAAUGGAGUUUAUCAUG [C35U C75U G83A G84A C95U C96U] | -1.5
GGAUCUUCUCGAUCUAACAAAAAAGACAAAUCUGUCACAAAGCUUGAGAGCAUCUUCGGAUGCAGAGGCGGCAGCCUUCGGUGGCGCGAUAGCGCUAACGCUCUCAACUAUGACACGUAAAACGCGUGCUCCGUUGAAUGGAGUUUAUCAUG [C35U C96U U101C C118U] | -0.95
GGAUCUUCUCGAUCUAACAAAAAAGACAAAUCUGUCACAAAGCUUGAGAGCAUCUUCGGAUGCAGAGGCGGCAGCCUUCGGUGGCGUGAUAGCGCCAACGUUCUCAGCUAUGACACGCAAAACGCAUGCUCCGUUUAAUUGAGUUUAUCAUG [C35U C87U A107G G126A G136U G140U] | ≤ -4.2
GGAUCUUCUCGAUCUAACAAAAAAGACAAAUCUGUCACAAAGCUUGAGAGCAUCUUGGGAUGCAGAGGCGGCAGCCUUCGGUGGCUCGAUAGCGCCAACGUUCUCAACUAUGACACGCAAAACGCGUGCUCCAUUGAAUGGAGUUUAUCAUG [C35U C57G G86U G133A] | -3.89
GGAUCUUCUCGAUCUAACAAAAAAGACAAAUCUGUCACAAAGCUUGAGAGCAUCUUGGGAUGCAGAGGCGGCAGCCUUCGGUGGAGCGAUAGCGCCAACGUUCUCAACUAUGACACGCAAAACACGUGCUCCGUUGACAGGCGGUUAUCAUG [C35U C57G C85A G124A A138C U139A A142C U144G] | ≤ -4.2
GGAUCUUCUCGAUCUAACAAAAAAGACAAAUCUGUCACAAAGCUUGAGAGCAUCUUCGGAUGCAGAGGCGGCAGCCUUCAGUGGCGCGAUGGCGCCAACGUUCUCAACUAUGACACGCAAAACGCGUGCUCCGUUAAAUGGAGUUUAUCAUG [C35U G80A A91G G136A] | -3.57
GGAUCUUCUCGAUCUAACAAAAAAGACAAAUCUGUCACAAAGCUUGAGAGCAUCUUCGGAUGCAGAGGCGGCAGCCUUCGGUGGCGCGAUAGCGACAACGUUCUGAACUAUGACACGCAAAACGCGUGCUCCGUUGAAUGGAGUUUAUCAUG [C35U C95A C105G] | -2.51
GGAUCUUCUCGAUCUAACAAAAAAGACAAAUCUGUCACAAAGCUUGAGAUCAUCUUCGGAUGCAGAGGCGGCAGCCUUCGGUUGCGAGAUAGCGCCAACGUUCUCAACUAUGACCCGGAAAACGCGUGCUCCGUUGAAUGGAGUUUAUCAUG [C35U G50U G83U C87A A115C C118G] | ≤ -4.2
GGAUCUUCUCGAUCUAACAAAAAAGACAAAUCUGUCACAAAGCGUGAGAGCAUCUUCGGAUGCAGAGGCGGCAGCCUUCGGUGGUGCGAUAGCGCCAACGUUCUCAACUAUGACAGGCAAAAAGCGUGCUCCGUUGAAUGGAGUUUAUCAUG [C35U U44G C85U C116G C123A] | -3.89
GGAUCUUCUCGAUCUAACAAAAAAGACAAAUCUGUCACAAAGCUUGAGAGCAUCUUCUGAUGCAGAGGCGGCAACCUUCUGUAGCGCGAUAGCGCCAACGUUCUCAACUAUGACAGGCAAAACGCGUGCUCCGUUGAAUGGAGUUUAUCAUG [C35U G58U G74A G80U G83A C116G] | ≤ -4.2
GGAUCUUCUCGAUCUAACAAAAAAGACAAAUCUGUCACAAAGCUUGAGAGCAUCUUCGGAUGCAGAGGCGGCAGCCUUCGGUGGCGCGAUAGCGCCAACGUUCUCAACUAUGACAUGCAGAACGCGUGCUCCGUUGAAUGGAGUUUAUCAUG [C35U C116U A120G] | -0.528
GGAUCUUCUCGAUCUAACAAAAAAGACAAAUCUGUCACAAAGCUUGAGAGCAUCUUCGGAUGCAGAGGCGGCAGCCUUCGGUGGCGCGAUAACGCGACCGUUCUCAACUAUGACACGCAAAACGCGUGCUCCGUUGAAUGGAGUUUAUCAUG [C35U G92A C96G A98C] | -3.23
GGAUCUUCUCGAUCUAACAAAAAAGACAAAUCUGUCACAAAGCUUGAGAGCAUCUUCGGAUGCAGAGGCGGCAGCCUUCGGUGGCACGAUAGCGCCAACGUUCUAAACUAUGACACGCAAAACGCGUGCUCCGUUGUAUGGAGUUUAUCAUG [C35U G86A C105A A137U] | ≤ -4.2
GGAUCUUCUCGAUCUAACAAAAAAGACAAAUCUGUCACAAAGCUUGAGAGCAACAUGGGAUGCAGAGGCAGCAGCCUUCGGUGACGCGAUAGAGCCAACGUUCUCAACUAUGACACGCAAAACGCGUGCUCCGUUGAAUGGAGUUUAUCAUG [C35U U53A U55A C57G G70A G84A C93A] | ≤ -4.2
GGAUCUUCUCGAUCUAACAAAAAAGACAAAUCUGUCACAAAGCUUGAGAGCAUCUUCGGAUGCAGAGGCGGCAGCCUUCGGUGGCGCGAUACCGCCAACGUUCUCAACUAUGACACGCAAAACGCGUGCUCCGUCGAAUGGAGUUUAUCAUG [C35U G92C U135C] | -2.73
GGAUCUUCUCGAUCUAACAAAAAAGACAAAUCUGUCACAAAGCUUGAGAGCAUCUUCGGAUGCAGAGGCGGUAGCCUUCGGUGGCGCGAUAGCGCCAACGUUCUCAACUAUGACACGCAAAACGCGUGCUCCGUUGAAUGGAGUUUAUCAUG [C35U C72U] | -0.649
GGAUCUUCUCGAUCUAACAAAAAAGACAAAUCUGUCACAAAGCUUGAGAGCAUCUUCGGAUGCAGAGGCGGCAUCCUUCGGUCGCGCGAUAGCGCCAACGUUCUCACCUAUGACACGCAAAACGCAUGCUCCGUUGAAUGGAGUUUACCAUG [C35U G74U G83C A107C G126A U148C] | ≤ -4.2
GGAUCUUCUCGAUCUAACAAAAAAGACAAAUCUGUCACAAAGCUUGAGAGCAUCUUCGGAUGCAGAGGCGGCAGCCUUCGGUGGCGCGAUAGCGCCAACGUUCUCAACUAUGACACGCAAAACGAGUGCUCCGCUGAAUGGAGUUUAUCAUG [C35U C125A U134C] | -0.129
